The text below walks through data of article PMC8874921, “Evolved DNA Duplex Readers for Strand-Asymmetrically Modified 5-Hydroxymethylcytosine/5-Methylcytosine CpG Dyads”.

For this series, the target named is wt MeCP2 MBD (Homo sapiens, UniProt P51608 90-181). Briefly: EMSA; EMSA; unlabeled oligo-dA/dT duplex (o2968/o2969) listed as binding trap; buffer, salt, pH and temperature not shown in the material. The conditions noted are these: protein: recombinant, tags: N-terminal FLAG-MBP-FactorXa-TEV, C-terminal 7xHis, label: 6-FAM 5' strand 1.
wt MeCP2 MBD, sequence (P51608 90-181): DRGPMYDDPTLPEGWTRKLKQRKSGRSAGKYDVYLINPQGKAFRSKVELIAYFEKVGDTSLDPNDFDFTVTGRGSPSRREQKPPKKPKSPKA

In general, Kd refers to the concentration at which binding is half-saturated.

B1: hmC/C oligo-dA/dT (EMSA) (dsDNA)
DNA 1: AAAAAAAAAAACGAAAAAAAAAAA
DNA 2: TTTTTTTTTTTCGTTTTTTTTTTT
modifications: 5hmC at C12 of strand 1 (o3115); strand 2 unmodified (o2904)
As for B1, the Kd (blunt) came to 211 ± 19.5 nM.

B2: C/mC oligo-dA/dT (EMSA) (dsDNA)
DNA 1: AAAAAAAAAAACGAAAAAAAAAAA
DNA 2: TTTTTTTTTTTCGTTTTTTTTTTT
modifications: 5mC at C12 of strand 1 (o2967); strand 2 unmodified (o2904)
Consider B2, for which, under “blunt”, the Kd was found to be 43.8 ± 3.64 nM.

B3: mC/mC oligo-dA/dT (EMSA) (dsDNA)
DNA 1: AAAAAAAAAAACGAAAAAAAAAAA
DNA 2: TTTTTTTTTTTCGTTTTTTTTTTT
modifications: 5mC at C12 of strand 1 (o2967); 5mC at C12 of strand 2 (o2909)
Regarding B3, the Kd (blunt) was found to be 3.9 ± 0.636 nM.

B4: hmC/hmC oligo-dA/dT (EMSA) (dsDNA)
DNA 1: AAAAAAAAAAACGAAAAAAAAAAA
DNA 2: TTTTTTTTTTTCGTTTTTTTTTTT
modifications: 5hmC at C12 of strand 1 (o3115); 5hmC at C12 of strand 2 (o3112)
Regarding B4, the Kd worked out at 198 ± 39.1 nM.

B5: hmC/mC oligo-dA/dT (EMSA) (dsDNA)
DNA 1: AAAAAAAAAAACGAAAAAAAAAAA
DNA 2: TTTTTTTTTTTCGTTTTTTTTTTT
modifications: 5hmC at C12 of strand 1 (o3115); 5mC at C12 of strand 2 (o2909)
In the case of B5, the Kd (blunt) came to 47.4 ± 12.4 nM.
